The target of assay [1] is T1, monovalent hVISTA-ECD (amino acids 32-193 of SEQ ID NO: 1 with a 7xHis tail) (human, UniProt Q9H7M9 33-193).
T1 construct: analyte of the SPR assays; also called huVISTA-His; human VISTA-ECD
The assay can be described thus: SPR 37C, Ab on Protein A, hVISTA-ECD 50-0.2 nM, pH 6.0. As to the method: (§1) Surface plasmon resonance (SPR) analysis was performed to measure the association rates (defined as ka or kₒₙ, 1/Ms units), dissociation rates (defined as kd or koff, s⁻¹ units) and affinity constants (defined as KD, M units) for VISTA Abs at acidic and physiological pHs using a Biacore® T200 instrument (GE Healthcare). […] Antibodies were diluted to 20 nM in PBST pH 7.4, and were captured across active biosensor flow cells at 5 ul/min for 50 seconds. A concentration series of 50 - 0.2 nM monovalent hVISTA-ECD (SEQ ID NO: 325) was prepared in pH 7.4 and 6.0 running buffers, and was injected over the captured antibodies at 40 ul/min to measure association and dissociation. Two 15 second injections of 10 mM glycine pH 1.5 were used to regenerate the Protein A capture surface between assay cycles. Rate constants kₐ (kₒₙ) and kd (kₒff) were derived from reference flow cell and 0 nM blank-subtracted sensorgrams, and were fit to a 1:1 binding model in Biacore® T200 Evaluation Software v.2.0.

In assay [2] the target is T1, monovalent hVISTA-ECD (amino acids …). The assay can be described thus: SPR 37C, Ab on Protein A, hVISTA-ECD 50-5 nM, pH 7.4, average. How it is done: Binding of several preparations of each of the ‘029 progeny clones and of the parent ‘029 antibodies, formatted as IgG1.3 antibodies, to human VISTA at pH 6.0 and 7.4 was measured by Surface plasmon resonance (SPR). SPR analysis was performed to measure koff and KD binding affinity measurements for VISTA Abs at acidic and neutral pHs using a Biacore® T100 instrument (GE Healthcare). […] Antibodies were diluted to 25 nM in PBST pH 7.4, and were captured across active biosensor flow cells at 5 ul/min for 60 seconds. A concentration series of 50 - 5 nM monovalent hVISTA-ECD (SEQ ID NO: 325) was prepared in pH 7.4 and 6.0 running buffers, and was injected over the captured antibodies at 40 ul/min to measure association and dissociation. Two 15 second injections of 10 mM glycine pH 1.5 were used to regenerate the Protein A capture surface between assay cycles. Rate constants ka (kₒₙ) and kd (koff) were derived from reference flow cell and 0 nM blank-subtracted sensorgrams, and were fit to a 1:1 binding model in Biacore® T200 Evaluation Software v.2.0. The affinity constant, KD was calculated as the ratio of rate constants koff/kₒₙ for each VISTA antibody.

For assay [3] the target is unchanged. The assay is described as follows: SPR, Ab on Protein A, hVISTA 100-7.8 nM, pH 7.4. As to the method: (§2) Further binding kinetic experiments were performed at various pHs on VISTA antibodies described herein by SPR as generally described in Example 9 above. Antibodies were normalized to 50 nM concentration in PBST pH 7.4 and captured on a Protein A CM5 chip (ID 4931) by injecting for 45 seconds at a 5 µL/min flow rate. An 8-point human VISTA titration ([…]) was prepared in PBST at pH 7.4, 6.9, 6.45, and 6.0. Titrations were injected over the captured antibodies for 180 seconds at 30 µL/min. Sensorgrams were fit to a 1:1 binding model in T200 evaluation software and the kinetic constants were reported.
(Surface plasmon resonance follows binding to a sensor surface in real time, without labels.)

The target is the same in assay [4]. The assay can be described thus: SPR 37C, Ab on Protein A, hVISTA-ECD 50-5 nM, pH 6.0, average. Summed up:
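Biacore T100 at 37C: antibodies (IgG1.3 format, 25 nM in PBST pH 7.4) captured on Protein A, then 50 - 5 nM monovalent hVISTA-ECD injected in pH 7.4 or 6.0 running buffer. Reference- and blank-subtracted sensorgrams fit to 1:1 model; KD = koff/kon.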

Assay [5] has the same target. The assay can be described thus: SPR, pH 7.4 over pH 6.0. How it is done:
as §2
Each table reports the data at one of the four tested pHs (7.4, 6.9, 6.45, and 6.0, respectively). The 8-point hVISTA titration used in these assays was chosen to provide increased confidence in kinetic values reported at neutral pH conditions. A relatively stringent cutoff for non-binding was applied in this assay. Certain progeny of P1-061029 antibody (P1-068757, ‘759, ‘765, ‘771, and ‘775) show no binding to hVISTA at micromolar concentrations at pH 7.4, while ‘761 and ‘767 show no binding to hVISTA at 100 nM at pH 7.4 but do show binding to hVISTA at micromolar concentrations.

Assay [6] shares this target. The assay is described as follows: SPR 37C, Ab on Protein A, hVISTA-ECD 50-0.2 nM, column headed pH 7 (running buffer pH 7.4 in the text). How it is done: as §1
Assay [7] shares this target. The assay can be described thus: SPR 37C, Ab on Protein A, hVISTA-ECD 50-5 nM, pH 6.0, average; ka printed Too fast, KD ND.
Assay [8] deals with T2, human VISTA on cells (293T cells ectopically expressing full-length human VISTA); AML3 cells and human … (human, UniProt Q9H7M9 33-311).
T2 sequence: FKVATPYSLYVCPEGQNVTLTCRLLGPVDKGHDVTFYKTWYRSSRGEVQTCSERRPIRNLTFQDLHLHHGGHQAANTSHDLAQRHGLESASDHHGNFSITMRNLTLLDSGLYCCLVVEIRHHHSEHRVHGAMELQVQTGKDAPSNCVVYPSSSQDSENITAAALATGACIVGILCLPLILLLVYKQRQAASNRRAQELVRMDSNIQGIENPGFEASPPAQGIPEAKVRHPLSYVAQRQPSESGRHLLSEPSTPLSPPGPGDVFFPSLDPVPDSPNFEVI
The assay can be described thus: cell-based or functional assay.

For assay [9], the target named is T1, monovalent hVISTA-ECD (amino acids …). The assay is described as follows: SPR 37C, Ab on Protein A, pH 6.0.
Assay [10] deals with T3, BSA (Calbiochem catalog #126593) (UniProt P02769 25-607).
T3 construct: pI control protein
T3 sequence (P02769 25-607 limits assumed): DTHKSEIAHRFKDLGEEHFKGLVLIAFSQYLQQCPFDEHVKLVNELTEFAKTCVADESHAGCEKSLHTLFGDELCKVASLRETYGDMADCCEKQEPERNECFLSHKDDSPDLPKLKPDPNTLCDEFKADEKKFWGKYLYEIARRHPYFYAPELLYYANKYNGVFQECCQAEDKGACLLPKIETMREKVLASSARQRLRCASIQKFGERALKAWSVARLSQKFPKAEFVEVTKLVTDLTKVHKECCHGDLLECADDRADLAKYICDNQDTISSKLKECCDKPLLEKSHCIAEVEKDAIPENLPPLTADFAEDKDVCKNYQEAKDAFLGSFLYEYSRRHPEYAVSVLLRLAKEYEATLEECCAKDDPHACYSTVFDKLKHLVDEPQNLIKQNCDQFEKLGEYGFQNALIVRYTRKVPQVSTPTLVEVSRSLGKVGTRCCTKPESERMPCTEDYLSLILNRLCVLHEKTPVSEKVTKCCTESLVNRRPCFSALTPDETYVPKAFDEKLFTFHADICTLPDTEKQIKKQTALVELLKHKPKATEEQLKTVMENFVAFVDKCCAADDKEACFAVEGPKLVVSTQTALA
The assay can be described thus: SPR 25C, Ab on Protein A, pH 6 and pH 7.4.

Assay [11] has as its target T4, avidin (ThermoFisher Scientific catalog #21128) (UniProt P02701 25-152).
T4 construct: pI control protein
The assay can be described thus: SPR 25C, Ab on Protein A, pH 6 and pH 7.4.

Assay [12] has as its target T1, monovalent hVISTA-ECD (amino acids …). The assay can be described thus: SPR, Ab on Protein A, hVISTA 100-7.8 nM, pH 7.4 (second row of this ligand).

These results are taken from patent US20230192860A1 (Bristol-Myers Squibb, published 2023).

Some results are limits rather than exact numbers.

T4 sequence (P02701 25-152 limits assumed): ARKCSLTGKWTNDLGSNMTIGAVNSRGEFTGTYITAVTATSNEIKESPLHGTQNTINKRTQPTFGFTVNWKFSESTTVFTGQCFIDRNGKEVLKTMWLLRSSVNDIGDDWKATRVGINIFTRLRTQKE

B1: P1-061015.IgG1.3 (antibody, V domains shown)
VH: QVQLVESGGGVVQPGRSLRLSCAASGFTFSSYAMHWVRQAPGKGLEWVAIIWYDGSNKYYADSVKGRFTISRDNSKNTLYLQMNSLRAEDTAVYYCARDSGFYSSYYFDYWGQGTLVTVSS
VL: EIVLTQSPATLSLSPGERATLSCRASQSVSSSYLAWYQQKPGQAPRLLIYDASNRATGIPARFSGSGSGTDFTLTISSLEPEDFATYYCQQYNSYPYTFGQGTKLEIKR
notes: IgG1.3
Turning to B1, the dissociation rate constant (koff) in [1] came out at 0.0014 s⁻¹; in assay [2] it was 0.002 s⁻¹; in assay [3], 0.00168 s⁻¹; in assay [4], 0.00095 s⁻¹; in assay [6], 0.0023 s⁻¹. Moreover, the Kd in [2] amounted to 8.8 nM; in assay [3], 5.12 nM; in assay [4], 0.54 nM. The association rate constant (kon) amounted to 230000 M⁻¹ s⁻¹ in [2], 329000 M⁻¹ s⁻¹ in assay [3] and 1.8e+06 M⁻¹ s⁻¹ in assay [4]. In addition, the “7.4 KD/ 6.0 KD” value in assay [5] turned out to be 8.2. For the same molecule, the “7.4 kd/ 6.0 kd” value in [5] was found to be 1.1.

B2: P1-068740 (antibody, human IgG1, kappa, V domains shown)
VH: QVQLVESGGGVVQPGRSLRLSCAASGFTFSDYAMHWVRQAPGKGLEWVAIIWYDGSDKDYADSVKGRFTISRDNSKNTLYLQMNSLRAEDTAVYYCARDSGFYDSYYFDDWGQGTLVTVSS
VL: EIVLTQSPATLSLSPGERATLSCRASQSVSSSYLAWYQQKPGQAPRLLIYDASNRATGIPARFSGSGSGTDFTLTISSLEPEDFATYYCQQYNSYPYTFGQGTKLEIKR
notes: IgG1.3
As for B2, the koff in assay [7] is 0.047 s⁻¹.

B3: VISTA.5 (mAb1) (antibody, V domains shown)
VH: AVQLQESGPGLVRPSQSLSLTCTVTDYSITSDYAWNWIRQFPGSKLEWLGFIGYSGNTNYNPSLESRISITRHTSKNQFFLHLNSMTTEDTATYYCARSLYGGSHWYFDVWGAGTTVTVSS
VL: DIVLTQSPASLAVSLGQRATISCRGSESVEYYGTILMQWYQQKPGQPPKLLIYGASNVESGVPARFSGSGSGTDFSLNIHPVEEDDIAMYFCQQSRKVPWTFGGGTKLEIK
In the case of B3, the “EC50, AML3 viability (Cell Titer Glo) with anti-human IgG secondary antibody-drug conjugate” value in assay [8] was found to be 0.485 µg/mL.

B4: P1-077869 (P1-068748 D57K) (antibody, V domains shown)
VH: QVQLVESGGGVVQPGRSLRLSCAASGFTFSHHAMHWVRQAPGKGLEWVAIIWYDGSNKDYADSVKGRFTISRDNSKNTLYLQMNSLRAEDTAVYYCARDSGFYDSYYFDYWGQGTLVTVSS
VL: EIVLTQSPATLSLSPGERATLSCRASQSVSSSYLAWYQQKPGQAPRLLIYDASNRATGIPARFSGSGSGTDFTLTISSLEPEDFATYYCQQYNSYPYTFGQGTKLEIK
Turning to B4, the “fold improvement of off-rate against the '748 antibody” value (“fold improvement of off-rate” for short) in [9] is no more than 2 fold.

B5: P1-077877 (P1-068748 H32Y D57K) (antibody, V domains shown)
VH: QVQLVESGGGVVQPGRSLRLSCAASGFTFSHYAMHWVRQAPGKGLEWVAIIWYDGSNKDYADSVKGRFTISRDNSKNTLYLQMNSLRAEDTAVYYCARDSGFYDSYYFDYWGQGTLVTVSS
VL: EIVLTQSPATLSLSPGERATLSCRASQSVSSSYLAWYQQKPGQAPRLLIYDASNRATGIPARFSGSGSGTDFTLTISSLEPEDFATYYCQQYNSYPYTFGQGTKLEIK
notes: the sister clones carry the VL of P1-061015
Regarding B5, in [9], the “fold improvement of off-rate” value was no more than 2 fold.

B6: P1-077883 (P1-068748 H31S D57K) (antibody, V domains shown)
VH: QVQLVESGGGVVQPGRSLRLSCAASGFTFSSHAMHWVRQAPGKGLEWVAIIWYDGSNKDYADSVKGRFTISRDNSKNTLYLQMNSLRAEDTAVYYCARDSGFYDSYYFDYWGQGTLVTVSS
VL: EIVLTQSPATLSLSPGERATLSCRASQSVSSSYLAWYQQKPGQAPRLLIYDASNRATGIPARFSGSGSGTDFTLTISSLEPEDFATYYCQQYNSYPYTFGQGTKLEIK
Take B6: the “fold improvement of off-rate” value in assay [9] is no more than 2 fold.

B7: P1-068767.IgG1.3 (antibody, V domains shown)
VH: EVQLVESGGGLVQPGKSLRLSCAASGFTLEDYAMHWVRQAPGKGLEWVSGIDWNSENIGYADSVKGRFTISRDNAKNSLYLQMNSLRTEDTALYYCAKVPGYSGGWIDAEDDWGQGTMVTVSS
VL: not shown
notes: IgG1.3; also called P1-068767-22; P1-068767 hIgG1.3f
For B7, the binding result in assay [10] and in [11] was “no binding (tested: 10 RU; analyte 100-10 nM)” in each case.

B8: P1-72000 (P1-061029_F100fE_V102D) (antibody, V domains shown)
VH: EVQLVESGGGLVQPGKSLRLSCAASGFTLDDYAMHWVRQAPGKGLEWVSGINWNSANIGYADSVKGRFTISRDNAKNSLYLQMNSLRTEDTALYYCAKVPGYSGGWIDAEDDWGQGTMVTVSS
VL: not shown
notes: also called P1-072000-3
In assay [12], B8 registered a dissociation constant (Kd) of 1400 nM, a koff of 0.032 s⁻¹ and a kon of 24000 M⁻¹ s⁻¹. In assay [3], the Kd turned out to be 2700 nM, the koff was found to be 0.038 s⁻¹ and the kon is 14000 M⁻¹ s⁻¹. Moreover, in assay [5], the “7.4 KD/ 6.0 KD” value turned out to be 258 and the “7.4 kd/ 6.0 kd” value stood at 14.2.

In general, koff refers to the rate constant with which the complex falls apart. Low values mean slow dissociation, high ones fast dissociation. What is called Kd is the concentration at which binding is half-saturated. Read a high Kd as lower affinity. A word on the kon: it is a measure of how fast the partners come together. Higher therefore signals faster complex formation.
